In one experiment the target is human FcRn (human). Briefly: BIAcore SPR, equilibrium/Scatchard, soluble FcRn over immobilized IgG1, pH 6.0, 25 C. In general terms: In SPR one partner is held on a chip, and binding of the other changes the refractive index at the surface.
For another experiment, the target named is murine FcRn (murine). Described as above.

The term Kd denotes the concentration at which binding is half-saturated.

human FcRn (human), sequence (chain, as listed by the source limits assumed, chain 1 of 2): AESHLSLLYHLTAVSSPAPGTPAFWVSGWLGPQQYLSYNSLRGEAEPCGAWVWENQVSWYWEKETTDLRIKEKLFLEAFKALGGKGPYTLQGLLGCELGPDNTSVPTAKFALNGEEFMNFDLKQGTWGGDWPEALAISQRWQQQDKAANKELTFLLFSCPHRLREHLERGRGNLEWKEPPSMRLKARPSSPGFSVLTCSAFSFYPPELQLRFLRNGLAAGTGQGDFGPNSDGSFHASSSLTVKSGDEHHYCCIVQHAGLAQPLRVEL
human FcRn (human), sequence (P61769 21-119 limits assumed, chain 2 of 2): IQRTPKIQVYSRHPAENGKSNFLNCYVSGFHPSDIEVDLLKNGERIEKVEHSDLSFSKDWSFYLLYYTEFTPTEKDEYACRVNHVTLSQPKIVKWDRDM
murine FcRn (murine), sequence (chain, as listed by the source limits assumed, chain 1 of 2): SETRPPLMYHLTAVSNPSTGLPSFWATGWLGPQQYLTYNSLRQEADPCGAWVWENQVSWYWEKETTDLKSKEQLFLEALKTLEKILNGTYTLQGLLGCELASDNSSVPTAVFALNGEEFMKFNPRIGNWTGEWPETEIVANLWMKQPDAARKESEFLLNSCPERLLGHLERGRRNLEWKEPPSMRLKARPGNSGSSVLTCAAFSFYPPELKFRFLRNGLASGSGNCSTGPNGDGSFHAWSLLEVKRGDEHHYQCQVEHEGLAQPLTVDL
murine FcRn (murine), sequence (P01887 21-119 limits assumed, chain 2 of 2): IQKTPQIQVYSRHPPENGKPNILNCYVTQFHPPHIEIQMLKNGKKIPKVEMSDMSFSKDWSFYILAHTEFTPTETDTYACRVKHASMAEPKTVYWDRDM

Take “wild type human IgG1 MEDI-493 (SYNAGIS) (antibody)”: the Kd stood at 2.53 µM with human FcRn (human) and 0.269 µM with murine FcRn (murine).

These data come from patent US20030190311A1.
